Paper PMC4775073

Molecular target: FLAG-CTRwt (full-length) (human) (UniProt P30988)
Assay: proximity ligation; in situ PLA (Duolink) on fixed PC cells (PC-3CTRwt, PC-3CTR∆ESS, LNCaP) with anti-ZO-1 and anti-CTR sera; with/without 50 nM CT for 30 seconds; dots per cell counted

Sequence of UniProt P30988 (P30988 25-474): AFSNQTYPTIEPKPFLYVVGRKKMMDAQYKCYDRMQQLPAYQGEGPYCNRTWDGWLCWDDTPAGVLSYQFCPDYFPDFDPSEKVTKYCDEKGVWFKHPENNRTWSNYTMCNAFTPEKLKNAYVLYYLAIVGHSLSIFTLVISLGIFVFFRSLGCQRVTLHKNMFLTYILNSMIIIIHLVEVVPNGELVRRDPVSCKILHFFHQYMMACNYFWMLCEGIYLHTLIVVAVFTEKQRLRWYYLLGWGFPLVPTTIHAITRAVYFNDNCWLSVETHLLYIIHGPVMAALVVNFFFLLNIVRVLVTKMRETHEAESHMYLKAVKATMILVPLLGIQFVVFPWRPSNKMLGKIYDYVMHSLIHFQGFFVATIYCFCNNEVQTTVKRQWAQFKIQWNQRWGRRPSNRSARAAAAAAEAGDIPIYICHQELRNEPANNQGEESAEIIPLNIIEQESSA

fold increase of PLA interactions with 50 nM CT (30 seconds) over no exogenous CT: 80 fold
Substance: Zonula Occludens-1 (ZO-1), endogenous (from UniProt Q07157 1-1748) (natural protein)
